Test results reported in US20060147453A1.

Molecular target: decorin
Assay: cell-based or functional assay

Work on “Full length human WISP-1-Fc fusion protein (baculovirus, Sf9 insect cells) (from UniProt O95388 23-367)” yielded an HAS2 expression in NRK cells plated on the coated surface (real time RT-PCR) of 3 fold.
